The term Kd denotes the concentration at which binding is half-saturated. For orientation: koff means a measure of how fast the partners let go of each other. In general, kon refers to the second-order rate constant of association. The EC50 is the concentration that produces a half-maximal response.

The source of these data is patent EP4814014A1, “BINDING MOLECULE AND ANTIBODY-DRUG CONJUGATE AND USE THEREOF” (priority 2023, dated 2025).

Assay [1] has as its target T1, human EGFR-his (ECD, Met1-Ser645) (human, UniProt P00533 25-645).
T1 construct: range 1-645; Bought; range as printed includes Met1
The assay can be described thus: SPR, antigen amine-coupled on GLM chip, antibody injected, 1:1 model. For orientation: In SPR one partner is held on a chip, and binding of the other changes the refractive index at the surface.

The target in assay [2] is T2, cynomolgus monkey EGFR-his (ECD, Met1-Ser645) (cynomolgus monkey, UniProt A0A2K5WK39 1-645).
T2 construct: range 1-645; Bought; range as printed includes Met1
The assay is described as above.

The target of assay [3] is T3, human cMet-his (ECD, Met1-Thr932) (human, UniProt P08581 25-932).
T3 construct: Bought; range as printed includes Met1
The assay is described as above.

The target of assay [4] is T4, cynomolgus monkey cMet-his (ECD, Met1-Thr932) (cynomolgus monkey, UniProt A0A2K5UM36 25-932).
T4 construct: Bought; range as printed includes Met1
The assay is described as above.

Assay [5] has as its target T5, human EGFR on cells (human, UniProt P00533 25-1210).
T5 construct: whole, on cells; the cell line is named under assay; also called CHO-S-EGFR; CHOK1-huEGFR
As to the kind of experiment: FACS, VHH-His on MDA-MB-468 cells. (Flow cytometry measures light scatter and fluorescence of single cells or particles in a stream.)

For assay [6], the target named is T5, human EGFR on cells. The assay can be described thus: FACS, VHH-His on CHOK1-huEGFR cells.

T4 sequence (A0A2K5UM36 entry or part of it limits assumed, form in doubt): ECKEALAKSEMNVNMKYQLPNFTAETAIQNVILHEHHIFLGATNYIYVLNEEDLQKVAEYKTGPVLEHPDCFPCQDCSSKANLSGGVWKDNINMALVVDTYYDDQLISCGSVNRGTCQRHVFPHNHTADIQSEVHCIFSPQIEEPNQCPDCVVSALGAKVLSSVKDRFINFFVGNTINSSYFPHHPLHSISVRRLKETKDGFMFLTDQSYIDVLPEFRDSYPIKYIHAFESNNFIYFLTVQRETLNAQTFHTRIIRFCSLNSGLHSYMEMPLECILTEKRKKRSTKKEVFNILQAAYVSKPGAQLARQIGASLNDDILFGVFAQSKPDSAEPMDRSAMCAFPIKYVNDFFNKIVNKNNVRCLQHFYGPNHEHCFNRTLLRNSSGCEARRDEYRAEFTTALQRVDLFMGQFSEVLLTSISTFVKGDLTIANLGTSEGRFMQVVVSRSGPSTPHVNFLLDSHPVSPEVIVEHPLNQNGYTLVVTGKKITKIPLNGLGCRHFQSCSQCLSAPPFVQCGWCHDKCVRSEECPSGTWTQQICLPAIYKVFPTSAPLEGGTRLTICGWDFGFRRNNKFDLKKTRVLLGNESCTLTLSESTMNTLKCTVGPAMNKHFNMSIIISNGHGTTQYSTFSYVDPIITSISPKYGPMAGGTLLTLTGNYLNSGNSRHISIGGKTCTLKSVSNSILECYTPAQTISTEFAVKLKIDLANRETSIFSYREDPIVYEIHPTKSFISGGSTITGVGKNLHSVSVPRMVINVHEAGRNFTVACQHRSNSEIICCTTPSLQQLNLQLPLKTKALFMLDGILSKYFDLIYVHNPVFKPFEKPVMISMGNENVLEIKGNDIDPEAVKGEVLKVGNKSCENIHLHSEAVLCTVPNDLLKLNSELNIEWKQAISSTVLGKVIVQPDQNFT
T3 sequence (P08581 25-932): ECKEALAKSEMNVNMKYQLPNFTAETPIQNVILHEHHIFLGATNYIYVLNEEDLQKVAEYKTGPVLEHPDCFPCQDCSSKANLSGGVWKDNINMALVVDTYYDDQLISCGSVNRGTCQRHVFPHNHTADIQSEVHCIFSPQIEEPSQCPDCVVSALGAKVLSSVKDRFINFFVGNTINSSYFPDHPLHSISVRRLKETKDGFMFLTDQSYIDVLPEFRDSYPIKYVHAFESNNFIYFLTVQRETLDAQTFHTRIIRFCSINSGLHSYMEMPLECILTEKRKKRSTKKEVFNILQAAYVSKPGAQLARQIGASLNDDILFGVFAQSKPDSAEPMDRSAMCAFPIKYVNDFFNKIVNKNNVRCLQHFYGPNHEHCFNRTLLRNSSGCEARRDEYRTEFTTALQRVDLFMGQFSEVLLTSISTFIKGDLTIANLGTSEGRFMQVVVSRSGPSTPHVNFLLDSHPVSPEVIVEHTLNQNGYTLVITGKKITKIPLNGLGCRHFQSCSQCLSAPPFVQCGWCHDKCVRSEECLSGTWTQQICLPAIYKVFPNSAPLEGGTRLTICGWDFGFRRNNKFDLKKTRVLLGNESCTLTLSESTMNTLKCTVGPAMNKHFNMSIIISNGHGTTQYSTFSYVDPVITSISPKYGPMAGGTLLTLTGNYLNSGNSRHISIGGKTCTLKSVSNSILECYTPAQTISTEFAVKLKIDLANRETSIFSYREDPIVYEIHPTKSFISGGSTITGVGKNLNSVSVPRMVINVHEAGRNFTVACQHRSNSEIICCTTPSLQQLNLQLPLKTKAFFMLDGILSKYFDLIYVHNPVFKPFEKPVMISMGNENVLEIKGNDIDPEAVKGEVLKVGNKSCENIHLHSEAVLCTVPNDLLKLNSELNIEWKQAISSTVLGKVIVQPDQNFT

B1: V-1 (5B10-9A2-7A12) (bispecific antibody)
chain: AVQLVDSGGGLVQPGGSLRLDCSASGTIIGTYTMAWYRQAPGKQREMVAIITPGGGSHHADSVKGRFTISRDNGKSTVYLQMSSLKFEDTAVYYCNAKARWGTTEYWGQGTQVTVSSGGGGSQSQLAESGGGLVQSGGSLGLSCVASGFTISRSIMSWYRQPPGKERDWVASIGSAGNTNYVDSVKGRFTISRDVAKNTVYLQMNSLKPEDTAVYYCKTTLAVSFSEYWGQGTQVTVSSGGGGSGGGGSEVQLVESGGGLVQAGGSLRLSCVASGNIFSSNHMGWFRQAPGKQREFIAYITTREITNYADSVKGRFTISRDNTKNTVYLQMNVLKPEDTAVYYCIADQSREIRRSWGQGTQVTVSS
notes: Single-chain trispecific anti-EGFR/cMet antibody
Turning to B1, the Kd in assay [1] turned out to be 31.7 nM; in assay [2], 27.8 nM; in assay [3], 9.81 nM; in assay [4] it was 6.43 nM. The koff is 0.00354 s⁻¹ in assay [1], 0.00206 s⁻¹ in assay [2], 0.00132 s⁻¹ in assay [3] and 0.000855 s⁻¹ in assay [4]. Besides, the kon in assay [1] was determined as 112000 M⁻¹ s⁻¹; in assay [2] it was 74100 M⁻¹ s⁻¹; in assay [3], 135000 M⁻¹ s⁻¹; in assay [4], 133000 M⁻¹ s⁻¹.

B2: V-7 (9B8-9A2-7A12) (bispecific antibody)
chain: QVQLVESGGGLVQPGGSLRLSCAASGLTFSYYAMAWFRQAPGKEREFVAAINWNGGNTYNTDSVKGRFTISRDNAKNTVYLQMNSLKPEDTAVYYCAVRYNSASYLVARSSDYNYWGQGTLVTVSSGGGGSQSQLAESGGGLVQSGGSLGLSCVASGFTISRSIMSWYRQPPGKERDWVASIGSAGNTNYVDSVKGRFTISRDVAKNTVYLQMNSLKPEDTAVYYCKTTLAVSFSEYWGQGTQVTVSSGGGGSGGGGSEVQLVESGGGLVQAGGSLRLSCVASGNIFSSNHMGWFRQAPGKQREFIAYITTREITNYADSVKGRFTISRDNTKNTVYLQMNVLKPEDTAVYYCIADQSREIRRSWGQGTQVTVSS
notes: as for B1
As to B2, the Kd was 0.0128 nM in assay [1], 0.00135 nM in assay [2], 10.2 nM in assay [3] and 6.59 nM in assay [4]. The koff came out at 1.17e-06 s⁻¹ in assay [1], 1.25e-07 s⁻¹ in assay [2], 0.00133 s⁻¹ in assay [3] and 0.000789 s⁻¹ in assay [4]. Moreover, the kon worked out at 91600 M⁻¹ s⁻¹ in assay [1], 93200 M⁻¹ s⁻¹ in assay [2], 130000 M⁻¹ s⁻¹ in assay [3] and 120000 M⁻¹ s⁻¹ in assay [4].

B3: V-n9B8 anti-EGFR VHH-His (VHH, not shown: small tags and cut ends)
VHH: QVQLVESGGGLVQPGGSLRLSCAASGLTFSYYAMAWFRQAPGKEREFVAAINWNGGNTYNTDSVKGRFTISRDNAKNTVYLQMNSLKPEDTAVYYCAVRYNSASYLVARSSDYNYWGQGTLVTVSS
notes: Monovalent parent VHH
On to B3, for which, in the assay with human EGFR on cells [5], the response was half-maximal at 2.04 nM (EC50) and the “Maximum MFI value” is 94600 MFI.

B4: zn9B8.m4 (VHH, not shown: small tags and cut ends)
VHH: EVQLLESGGGLVQPGGSLRLSCAASGLTFSYYAMAWFRQAPGKEREFVAAINWNGGNTYNTDSVKGRFTISRDNSKNTVYLQMNSLRSEDTAVYYCAVRYNSASYLVARSSDYNYWGQGTLVTVSS
notes: Humanized anti-EGFR VHH-His
With B4, in the assay with human EGFR on cells [5], a half-maximal response (EC50) required 1.43 nM and the “Maximum MFI value” is 57100 MFI.

B5: V-15 (10A1-7A12-9A2) (bispecific antibody)
chain: QVQLVESGGGLVQAGGSLRLSCAASGRTGSLHAMGWFRQAPGKERERVATLNLSDGSAVTADSVKGRFTISTDNTKNSVYLQMNSLKPEDTAVYYCTASRSPSGIRYYKPDYWGQGTQVTVSSGGGGSEVQLVESGGGLVQAGGSLRLSCVASGNIFSSNHMGWFRQAPGKQREFIAYITTREITNYADSVKGRFTISRDNTKNTVYLQMNVLKPEDTAVYYCIADQSREIRRSWGQGTQVTVSSGGGGSGGGGSQSQLAESGGGLVQSGGSLGLSCVASGFTISRSIMSWYRQPPGKERDWVASIGSAGNTNYVDSVKGRFTISRDVAKNTVYLQMNSLKPEDTAVYYCKTTLAVSFSEYWGQGTQVTVSS
notes: as for B1
As for B5, the Kd in assay [1] worked out at 28.3 nM; in assay [2], 22.8 nM; in assay [3], 6.61 nM; in assay [4], 4.49 nM. Moreover, the koff in assay [1] is 0.00943 s⁻¹; in assay [2] it was 0.00764 s⁻¹; in assay [3] it was 0.00125 s⁻¹; in assay [4], 0.000831 s⁻¹. Moreover, the kon is 334000 M⁻¹ s⁻¹ in assay [1], 335000 M⁻¹ s⁻¹ in assay [2], 189000 M⁻¹ s⁻¹ in assay [3] and 185000 M⁻¹ s⁻¹ in assay [4].

B6: V-13 (10A1-9A2-7A12) (bispecific antibody)
chain: QVQLVESGGGLVQAGGSLRLSCAASGRTGSLHAMGWFRQAPGKERERVATLNLSDGSAVTADSVKGRFTISTDNTKNSVYLQMNSLKPEDTAVYYCTASRSPSGIRYYKPDYWGQGTQVTVSSGGGGSQSQLAESGGGLVQSGGSLGLSCVASGFTISRSIMSWYRQPPGKERDWVASIGSAGNTNYVDSVKGRFTISRDVAKNTVYLQMNSLKPEDTAVYYCKTTLAVSFSEYWGQGTQVTVSSGGGGSGGGGSEVQLVESGGGLVQAGGSLRLSCVASGNIFSSNHMGWFRQAPGKQREFIAYITTREITNYADSVKGRFTISRDNTKNTVYLQMNVLKPEDTAVYYCIADQSREIRRSWGQGTQVTVSS
notes: as for B1
For the molecule B6, the Kd in assay [1] was determined as 48.9 nM; in assay [2] it was 37.4 nM; in assay [3], 2.72 nM; in assay [4] it was 1.91 nM. The koff stood at 0.0135 s⁻¹ in assay [1], 0.0162 s⁻¹ in assay [2], 0.000825 s⁻¹ in assay [3] and 0.000381 s⁻¹ in assay [4]. For the same molecule, the kon in assay [1] turned out to be 276000 M⁻¹ s⁻¹; in assay [2], 433000 M⁻¹ s⁻¹; in assay [3], 304000 M⁻¹ s⁻¹; in assay [4], 200000 M⁻¹ s⁻¹.

B7: V-9 (9B8-7A12-9A2) (bispecific antibody)
chain: QVQLVESGGGLVQPGGSLRLSCAASGLTFSYYAMAWFRQAPGKEREFVAAINWNGGNTYNTDSVKGRFTISRDNAKNTVYLQMNSLKPEDTAVYYCAVRYNSASYLVARSSDYNYWGQGTLVTVSSGGGGSEVQLVESGGGLVQAGGSLRLSCVASGNIFSSNHMGWFRQAPGKQREFIAYITTREITNYADSVKGRFTISRDNTKNTVYLQMNVLKPEDTAVYYCIADQSREIRRSWGQGTQVTVSSGGGGSGGGGSQSQLAESGGGLVQSGGSLGLSCVASGFTISRSIMSWYRQPPGKERDWVASIGSAGNTNYVDSVKGRFTISRDVAKNTVYLQMNSLKPEDTAVYYCKTTLAVSFSEYWGQGTQVTVSS
notes: as for B1
As to B7, the Kd in assay [1] was determined as 0.0027 nM; in assay [2], 0.0255 nM; in assay [3], 14.4 nM; in assay [4], 10.2 nM. The koff in assay [1] is 2.35e-07 s⁻¹; in assay [2] it was 1.95e-06 s⁻¹; in assay [3] it was 0.00167 s⁻¹; in assay [4] it was 0.0011 s⁻¹. In addition, the kon in assay [1] was found to be 86900 M⁻¹ s⁻¹; in assay [2], 76400 M⁻¹ s⁻¹; in assay [3], 116000 M⁻¹ s⁻¹; in assay [4] it was 108000 M⁻¹ s⁻¹.

B8: V-3 (5B10-7A12-9A2) (bispecific antibody)
chain: AVQLVDSGGGLVQPGGSLRLDCSASGTIIGTYTMAWYRQAPGKQREMVAIITPGGGSHHADSVKGRFTISRDNGKSTVYLQMSSLKFEDTAVYYCNAKARWGTTEYWGQGTQVTVSSGGGGSEVQLVESGGGLVQAGGSLRLSCVASGNIFSSNHMGWFRQAPGKQREFIAYITTREITNYADSVKGRFTISRDNTKNTVYLQMNVLKPEDTAVYYCIADQSREIRRSWGQGTQVTVSSGGGGSGGGGSQSQLAESGGGLVQSGGSLGLSCVASGFTISRSIMSWYRQPPGKERDWVASIGSAGNTNYVDSVKGRFTISRDVAKNTVYLQMNSLKPEDTAVYYCKTTLAVSFSEYWGQGTQVTVSS
notes: as for B1
For the molecule B8, the Kd in assay [1] was 25.1 nM; in assay [2], 21.8 nM; in assay [3] it was 8.61 nM; in assay [4], 5.99 nM. Further, the koff came out at 0.003 s⁻¹ in assay [1], 0.00246 s⁻¹ in assay [2], 0.00158 s⁻¹ in assay [3] and 0.00106 s⁻¹ in assay [4]. Also, the association rate constant (kon) in assay [1] is 119000 M⁻¹ s⁻¹; in assay [2], 112000 M⁻¹ s⁻¹; in assay [3], 183000 M⁻¹ s⁻¹; in assay [4], 176000 M⁻¹ s⁻¹.

B9: zn5B10.m21 (VHH, not shown: small tags and cut ends)
VHH: EVQLVESGGGLVQPGGSLRLSCSASGTIIGTYTMAWYRQAPGKQREMVAIITPGGGSHHADSVKGRFTISRDNGKNTLYLQMSSLRAEDTAVYYCNAKARWGTTEYWGQGTLVTVSS
notes: Humanized anti-EGFR VHH-His
For B9, in the assay with human EGFR on cells [5], it took 0.429 nM to reach a half-maximal effect (EC50) and the “Maximum MFI value” turned out to be 58700 MFI.

B10: zn5B10.m22 (VHH, not shown: small tags and cut ends)
VHH: EVQLVESGGGLVQPGGSLRLSCSASGTIIGTYTMAWYRQAPGKQREMVAIITPGGGSHHADSVKGRFTISRDNSKNTLYLQMSSLRFEDTAVYYCNAKARWGTTEYWGQGTLVTVSS
notes: Humanized anti-EGFR VHH-His
With B10, in the assay with human EGFR on cells [5], the response was half-maximal at 1.15 nM (EC50) and the “Maximum MFI value” came out at 86900 MFI.

B11: zn5B10.m23 (VHH, not shown: small tags and cut ends)
VHH: EVQLVESGGGLVQPGGSLRLDCSASGTIIGTYTMAWYRQAPGKQREMVAIITPGGGSHHADSVKGRFTISRDNSKSTVYLQMSSLRFEDTAVYYCNAKARWGTTEYWGQGTLVTVSS
notes: Humanized anti-EGFR VHH-His
B11: in the assay with human EGFR on cells [5], the EC50 worked out at 1.94 nM and the “Maximum MFI value” turned out to be 74200 MFI.

B12: pzn10A1_m6m5 (VHH, not shown: small tags and cut ends)
VHH: QVQLVESGGGLVQPGGSLRLSCAASGRTGSLHAMGWFRQAPGKERERVATLNLSDVSAVTADSVKGRFTISTDNSKNSVYLQMNSLRAEDTAVYYCTASRSPSGIRYYKPDYWGQGTLVTVSS
With B12, the Maximum MFI value in the assay with human EGFR on cells [6] was 3570 MFI.

B13: ppzn10A1_m6m5.m1 (VHH, not shown: small tags and cut ends)
VHH: QVQLVESGGGLVQPGGSLRLSCAASGRTGSLHAMGWFRQAPGKERERVATLRLSDVSAVTADSVKGRFTISTDNSKNSVYLQMNSLRAEDTAVYYCTASRSPSGIRYYKPDYWGQGTLVTVSS
Molecule B13 yielded a Maximum MFI value with human EGFR on cells [6] of 2470 MFI.

B14: ppzn10A1_m6m5.m3 (VHH, not shown: small tags and cut ends)
VHH: QVQLVESGGGLVQPGGSLRLSCAASGRTGSLHAMGWFRQAPGKERERVATLQLSDVSAVTADSVKGRFTISTDNSKNSVYLQMNSLRAEDTAVYYCTASRSPSGIRYYKPDYWGQGTLVTVSS
B14 displayed a Maximum MFI value with human EGFR on cells [6] of 4770 MFI.
